Measurements: paper PMC13385800 (2026)

Experiments:
Test in all cases: co-immunoprecipitation, mass spectrometry
[1] = target: endogenous SETD5 of Flp-In T-REx 293 and HEK293T cells [human (endogenous in Flp-In T-REx 293 and HEK293T)]; conditions: n = 3 independent transfections per mutant, read off a plot
[2] = target: NCOR1 (endogenous, HEK293T) [Homo sapiens (Human).]; conditions: HEK293T cells; n = 3 independent transfections per mutant; read off a plot
[3] = target: GPS2 (endogenous, HEK293T); conditions: HEK293T cells; n = 3 independent transfections per mutant; read off a plot
[4] = target: HDAC3 (endogenous, HEK293T); conditions: HEK293T cells; n = 3 independent transfections per mutant; read off a plot
[5] = target: TBL1X (endogenous, HEK293T); conditions: HEK293T cells; n = 3 independent transfections per mutant; read off a plot

EGFP-ANKRD11 full length (FL), wild type mutant L2605R [not stated] / endogenous SETD5 of Flp-In T-REx 293 and HEK293T cells [human (endogenous in Flp-In T-REx 293 and HEK293T)] chain 1 L2605R
screen value [1]: 4.6 log2

EGFP-ANKRD11 full length (FL), wild type mutant E2522K [not stated] / NCOR1 (endogenous, HEK293T) [Homo sapiens (Human).] chain 1 E2522K
screen value [2]: 2.9 log2

EGFP-ANKRD11 full length (FL), wild type mutant E2522K [not stated] / endogenous SETD5 of Flp-In T-REx 293 and HEK293T cells [human (endogenous in Flp-In T-REx 293 and HEK293T)] chain 1 E2522K
screen value [1]: 2.7 log2

EGFP-ANKRD11 full length (FL), wild type mutant R2523W [not stated] / endogenous SETD5 of Flp-In T-REx 293 and HEK293T cells [human (endogenous in Flp-In T-REx 293 and HEK293T)] chain 1 R2523W
screen value [1]: 5.6 log2

EGFP-ANKRD11 full length (FL), wild type mutant S2475P [not stated] / NCOR1 (endogenous, HEK293T) [Homo sapiens (Human).] chain 1 S2475P
screen value [2]: 7.9 log2

EGFP-ANKRD11 full length (FL), wild type mutant R2512Q [not stated] / endogenous SETD5 of Flp-In T-REx 293 and HEK293T cells [human (endogenous in Flp-In T-REx 293 and HEK293T)] chain 1 R2512Q
screen value [1]: 4 log2

EGFP-ANKRD11 full length (FL), wild type (from UniProt Q6UB99) L2605R
other: log2 fold change (WT/mutant) [3]: 3.4 log2
other: log2 fold change (WT/mutant) [4]: 7 log2
other: log2 fold change (WT/mutant) [5]: 7.2 log2

EGFP-ANKRD11 full length (FL), wild type (from UniProt Q6UB99) R2523W
other: log2 fold change (WT/mutant) [3]: 2.8 log2
other: log2 fold change (WT/mutant) [4]: 5.9 log2

EGFP-ANKRD11 full length (FL), wild type mutant R2512Q [not stated] / NCOR1 (endogenous, HEK293T) [Homo sapiens (Human).] chain 1 R2512Q
screen value [2]: 4.2 log2

EGFP-ANKRD11 full length (FL), wild type (from UniProt Q6UB99) E2522K
other: log2 fold change (WT/mutant) [3]: 2.8 log2
other: log2 fold change (WT/mutant) [4]: 2.9 log2
other: log2 fold change (WT/mutant) [5]: 2.3 log2

EGFP-ANKRD11 full length (FL), wild type mutant R2523W [not stated] / NCOR1 (endogenous, HEK293T) [Homo sapiens (Human).] chain 1 R2523W
screen value [2]: 7.4 log2

EGFP-ANKRD11 full length (FL), wild type mutant L2605R [not stated] / NCOR1 (endogenous, HEK293T) [Homo sapiens (Human).] chain 1 L2605R
screen value [2]: 7.9 log2

EGFP-ANKRD11 full length (FL), wild type (from UniProt Q6UB99) S2475P
other: log2 fold change (WT/mutant) [3]: 3.4 log2
other: log2 fold change (WT/mutant) [4]: 7 log2
other: log2 fold change (WT/mutant) [5]: 7.6 log2

EGFP-ANKRD11 full length (FL), wild type mutant S2475P [not stated] / endogenous SETD5 of Flp-In T-REx 293 and HEK293T cells [human (endogenous in Flp-In T-REx 293 and HEK293T)] chain 1 S2475P
screen value [1]: 4.6 log2
